Assay results reported in PMC3667199 (Biochemistry, 2011).

Tests used:
PTP10D = molecular target: T1, PTP10D (Drosophila melanogaster, UniProt P35992); experiment: crystal structure; assay type: biochemical
T1 sequence (P35992 1226-1533): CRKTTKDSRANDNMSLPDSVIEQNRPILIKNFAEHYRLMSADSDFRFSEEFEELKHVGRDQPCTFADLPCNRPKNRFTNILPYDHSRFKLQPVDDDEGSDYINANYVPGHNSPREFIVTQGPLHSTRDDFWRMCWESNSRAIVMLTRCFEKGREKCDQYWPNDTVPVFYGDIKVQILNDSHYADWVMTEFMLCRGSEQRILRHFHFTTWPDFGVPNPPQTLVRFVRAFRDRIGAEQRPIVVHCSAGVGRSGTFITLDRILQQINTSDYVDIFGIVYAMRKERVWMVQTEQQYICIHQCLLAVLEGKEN

purified protein = substrate: O=[N+]([O-])c1ccc(OP(=O)(O)O)cc1; experiment: purified protein

## [O]=[V]([OH])([OH])[OH] [sodium vanadate]
PTP10D
  Ki: 1.53 ± 0.14 µM

B1: PTP10D (Drosophila melanogaster) (protein)
chain: CRKTTKDSRANDNMSLPDSVIEQNRPILIKNFAEHYRLMSADSDFRFSEEFEELKHVGRDQPCTFADLPCNRPKNRFTNILPYDHSRFKLQPVDDDEGSDYINANYVPGHNSPREFIVTQGPLHSTRDDFWRMCWESNSRAIVMLTRCFEKGREKCDQYWPNDTVPVFYGDIKVQILNDSHYADWVMTEFMLCRGSEQRILRHFHFTTWPDFGVPNPPQTLVRFVRAFRDRIGAEQRPIVVHCSAGVGRSGTFITLDRILQQINTSDYVDIFGIVYAMRKERVWMVQTEQQYICIHQCLLAVLEGKEN
Purified protein
  Km: 5.3128 ± 0.05842 mM
  Vmax: 13.7 µmol/min/mg
  kcat: 8.24 ± 0.89 s⁻¹
  kcat/Km: 1550 ± 160 M⁻¹ s⁻¹
